PMC4287497, “Phosphorylation of Elp1 by Hrr25 Is Required for Elongator-Dependent tRNA Modification in Yeast” (PLoS Genetics, 2015)
Blank lines part the entries; values can stand above or below the molecule they belong to.

Key:
Kti12 [1] = molecular target: Kti12 (UniProt P34253); experiment: GFP-trap IP of Elp1-GFP, anti-HA blot, densitometry; settings: reference: wild type Elp1-GFP; sites S1209
Kti12 [2] = molecular target: Kti12 (UniProt P34253); experiment: Elp2-myc IP of Elongator, anti-HA blot for Kti12; settings: reference: wild type Elp1; sites S1209
Elp1-S1209A-GFP = molecular target: T1, Elp1-S1209A-GFP (S. cerevisiae, UniProt Q06706 1-1349, S1209A); experiment: co-IP; GFP-tagged Elp1 (genomic locus) precipitated with GFP-trap from yeast extracts; Western blot with anti-GFP and anti-HA; densitometry of Kti12-HA normalised to Elp1-GFP, wild type set to 1.0; settings: partners not purified
T1 construct: Elp1 (Iki3), S. cerevisiae; also called mutant Elp1-GFP fusion; source: S. cerevisiae, expressed from its genomic locus, in cell extract
T1 sequence (looked up): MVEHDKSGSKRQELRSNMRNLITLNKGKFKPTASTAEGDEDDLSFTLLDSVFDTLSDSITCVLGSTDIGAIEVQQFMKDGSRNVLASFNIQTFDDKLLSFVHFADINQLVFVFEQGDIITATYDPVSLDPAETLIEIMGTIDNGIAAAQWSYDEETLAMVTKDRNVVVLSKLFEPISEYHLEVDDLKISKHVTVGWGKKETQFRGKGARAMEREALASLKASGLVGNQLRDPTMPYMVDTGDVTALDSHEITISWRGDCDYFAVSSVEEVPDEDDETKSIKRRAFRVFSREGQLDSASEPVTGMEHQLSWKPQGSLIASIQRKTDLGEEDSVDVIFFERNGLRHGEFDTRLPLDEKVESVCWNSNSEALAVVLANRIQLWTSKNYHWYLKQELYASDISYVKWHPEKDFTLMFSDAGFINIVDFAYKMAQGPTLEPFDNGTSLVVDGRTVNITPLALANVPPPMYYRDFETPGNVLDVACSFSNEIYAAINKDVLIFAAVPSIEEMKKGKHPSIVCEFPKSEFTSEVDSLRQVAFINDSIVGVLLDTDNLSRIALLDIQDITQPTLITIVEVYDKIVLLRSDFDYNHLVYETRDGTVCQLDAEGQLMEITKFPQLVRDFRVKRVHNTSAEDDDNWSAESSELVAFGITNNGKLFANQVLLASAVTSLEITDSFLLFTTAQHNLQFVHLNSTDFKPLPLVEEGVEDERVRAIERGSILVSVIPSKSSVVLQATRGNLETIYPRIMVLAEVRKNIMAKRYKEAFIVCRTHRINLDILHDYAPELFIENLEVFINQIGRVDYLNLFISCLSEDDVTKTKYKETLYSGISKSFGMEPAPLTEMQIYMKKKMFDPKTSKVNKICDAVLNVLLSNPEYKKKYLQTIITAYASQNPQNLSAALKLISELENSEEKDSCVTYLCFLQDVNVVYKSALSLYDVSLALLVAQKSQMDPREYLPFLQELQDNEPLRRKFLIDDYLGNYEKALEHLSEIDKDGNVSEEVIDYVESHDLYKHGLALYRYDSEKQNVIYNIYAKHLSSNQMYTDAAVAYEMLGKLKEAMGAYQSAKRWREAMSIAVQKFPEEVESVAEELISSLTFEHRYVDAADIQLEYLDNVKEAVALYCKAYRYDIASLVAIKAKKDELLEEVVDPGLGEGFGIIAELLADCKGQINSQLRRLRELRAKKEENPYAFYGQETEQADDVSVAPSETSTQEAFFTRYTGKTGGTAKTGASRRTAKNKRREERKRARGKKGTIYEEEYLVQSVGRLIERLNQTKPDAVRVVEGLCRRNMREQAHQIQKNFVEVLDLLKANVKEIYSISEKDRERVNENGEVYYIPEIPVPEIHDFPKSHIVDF

fold change (Kti12 [1]): stronger; reference 1.0
Molecule: Elp1 (Iki3) (from UniProt Q06706) S1209A Elp1-GFP

binding against the reference (Kti12 [2]): stronger
Molecule: Elp1 (Iki3) (from UniProt Q06706) S1209A

Kti12 co-precipitated, fold of wild-type Elp1 (Elp1-S1209A-GFP): ~2 fold of wild-type Elp1
B1: Kti12-HA6 (natural protein, S. cerevisiae, UniProt P34253 1-313, looked up)
chain: MPLVLFTGYPCSGKTTLAKHLVQLLQSKIDATPSLSKYSITYHSDESLGIKHSDYITSQDERKLRSEIISAVKRDLSKNKIVIVDSLNYIKGFRYQLHCEVKNLSTTFCVIQTLCPPETIFEWNKTSNPNPWEPELLNQLIQRYEEPNSSNRWDSPLFAILTPQDNITDYIDDICKVVFQTSKSAKNSGHNDPLSKGLQKPNSATVLKPASQSNFIQVLDIETSKIIKTIMNHIKSLTSIGGVSNGTRVIVSEGITDINDDGCFFVDLPIGNVVTLAQLQRLKRQFINFNKLRDIDQDRIGPLFADYLNKNLN
notes: Kti12, accessory protein of Elongator, S. cerevisiae; also called HA-tagged Kti12; source: S. cerevisiae KTI12-HA6 strains, in cell extract
